Experimental data published in article PMC11841055, “Structural characterization of pyruvic oxime dioxygenase, a key enzyme in heterotrophic nitrification” (Journal of Bacteriology, 2025).

The molecules below were run on CC(=NO)C(=O)O (assay: nitrite production, diazo-coupling spectrophotometry). Settings: 20 mM Tris-HCl pH 8.0, 1.0 mM sodium ascorbate, 100 µM FeSO4, O2 as co-substrate.
Type: biochemical, Alcaligenes faecalis
Source text: (§1) nitrite production, diazo-coupling spectrophotometry on AfPOD

| Molecule | Km [µM] | kcat [s⁻¹] | kcat/Km [M⁻¹ s⁻¹] |
| --- | --- | --- | --- |
| AfPOD (Alcaligenes faecalis) (protein) MDTPLRDKSYFDERATKEMATHLQQVQRDTRETMAFACRILAMTEQEAGLAGQISVRSERPGAYWTLRFGLGFDEATPEDFIEVDRDLNTLSGEGMANPATRFHLWVYEARPDVNSIIHTHSPWATVLATARQPLVISQMDMTPLHNDCAFLGEWPGVPIADQEGVIISKALGDKRAIILAHHGYLTAGKSCQEATYLSVYLERAARLQVRAQAAFGPLTPVDDTLAAEAHDYLLKPSIVNATFDYWSRQTQGIAPLTKTR | 622 ± 83 | 4.8 ± 0.169 | 7700 |

Each molecule was assayed on T1, CC(=NO)C(=O)O in the same assay as above. Settings: 20 mM Tris-HCl pH 8.0, 1.0 mM sodium ascorbate, 100 µM FeSO4, O2 as co-substrate.
T1 construct: full length, 261 residues (Met1-Arg261); recombinant in E. coli; variants with C-terminal His6-tag, WT by two untagged chromatographic steps; homotetramer, Fe(II)-dependent
Type: biochemical, Alcaligenes faecalis
Source text: as §1

| Molecule | Km [µM] | kcat [s⁻¹] | kcat/Km [M⁻¹ s⁻¹] |
| --- | --- | --- | --- |
| AfPOD (Alcaligenes faecalis; H104A) | 170 ± 37 | 0.21 ± 0.013 | 1200 |
| AfPOD (Alcaligenes faecalis; E229K) | 2150 ± 172 | 4.58 ± 0.098 | 2100 |
| AfPOD (Alcaligenes faecalis; E229K/K8E) | 2538 ± 568 | 1.76 ± 0.109 | 690 |
| AfPOD (Alcaligenes faecalis; K8E) | 68766 ± 20299 | 0.632 ± 0.066 | 9.2 |
| AfPOD (Alcaligenes faecalis; F69A) | 41509 ± 9984 | 0.246 ± 0.018 | 5.9 |
| AfPOD (Alcaligenes faecalis; E164A) | 943 ± 240 | 0.27 ± 0.02 | 290 |
| AfPOD (Alcaligenes faecalis; Q53A) | 96 ± 18 | 0.162 ± 0.008 | 1700 |
| AfPOD (Alcaligenes faecalis; F103A) | 89 ± 22 | 0.008 ± 0.001 | 90 |
| AfPOD (Alcaligenes faecalis; Y233A) | 42247 ± 16705 | 0.012 ± 0.001 | 0.3 |
